Factor of change of Kd against the H3(1-132)-LEEGLG nucleosome data for 1 substance are collected here from publication PMC3763809.

In assay [1] the target is H3(1-132)-LEEGLG nucleosome, first Glu of the tail to Ala (Drosophila | human) (UniProt P02299). Briefly: ITC. On the technique in general: Isothermal titration calorimetry measures the heat released or taken up as one component is titrated into another.
Assay [2] addresses H3(1-132)-LEEGLG nucleosome, second Glu of the tail to Ala (Drosophila | human) (UniProt P02299). Briefly: ITC.

CENP-C central region, CENP-C(444-537), sequence (Q03188 444-537): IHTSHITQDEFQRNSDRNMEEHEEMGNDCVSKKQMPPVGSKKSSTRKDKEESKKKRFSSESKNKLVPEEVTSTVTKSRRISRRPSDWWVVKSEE

Regarding “CENP-C central region, CENP-C(444-537) (from UniProt Q03188 444-537) (domain or fragment)”, the values for the factor of change of Kd against the H3(1-132)-LEEGLG nucleosome in assay [1] and in assay [2] were 3 fold and 10 fold, respectively.
